Patent US20040235749A1 (HOSPITAL SAINTE JUSTINE, published 2004)
Each block holds one binder with its values, some of them ahead of it. Non-standard residues stand in square brackets, D forms with d. No end group written: not given here. dCha = N[C@H](CC1CCCCC1)C(=O)O

Assays:
Assay in all cases: cell-based or functional assay
[1] = biological target: FP receptor in porcine tissue (retinal microvessels, uterine myometrium) (pig)
[2] = biological target: Urotensin receptor (GPR14) in porcine tissue (retinal microvessels, aortic strips) (pig)
[3] = biological target: PAF receptor in porcine retinal microvessels (pig, UniProt Q9XSD4 1-342)
Sequence of PAF receptor in porcine retinal microvessels (Q9XSD4 whole entry): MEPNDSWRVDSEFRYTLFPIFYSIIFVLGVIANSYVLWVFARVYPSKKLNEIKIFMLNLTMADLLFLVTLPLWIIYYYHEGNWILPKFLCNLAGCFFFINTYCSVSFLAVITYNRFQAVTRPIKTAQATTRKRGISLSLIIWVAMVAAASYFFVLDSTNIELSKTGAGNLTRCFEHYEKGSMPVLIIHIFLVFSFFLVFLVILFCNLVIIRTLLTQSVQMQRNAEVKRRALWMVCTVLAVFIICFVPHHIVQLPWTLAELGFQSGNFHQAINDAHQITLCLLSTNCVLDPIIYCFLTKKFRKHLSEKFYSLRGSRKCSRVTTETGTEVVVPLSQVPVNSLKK

Binder: [dI][dL]A[dH][dR][dD][dY][dK] [PCP-13.8]
% Inhibition of Maximal Response, 100 µM peptide, 10^-7 M PGF2α, porcine eyecup [1]: 53.2%
% Vasomotor Response (of maximum constriction), 100 µM peptide, 10^-7 M PGF2α, porcine eyecup [1]: 46.8%

Binder: [dI][dL]G[dH][dQ][dD][dY][dK] [PCP-13.18]
% Inhibition of Maximal Response, 100 µM peptide, 10^-7 M PGF2α, porcine eyecup [1]: 70%
% Vasomotor Response (of maximum constriction), 100 µM peptide, 10^-7 M PGF2α, porcine eyecup [1]: 30%

Binder: [dI][dL]G[dH][dR][dD][dY][dK] [PCP-13]
% Inhibition of Maximal Response, 100 µM peptide, 10^-7 M PGF2α, porcine eyecup [1]: 80%
% Vasomotor Response (of maximum constriction), 100 µM peptide, 10^-7 M PGF2α, porcine eyecup [1]: 20%

Binder: [dI][dL][dA][dH][dR][dD][dY][dK] [PCP-13.7]
% Inhibition of Maximal Response, 100 µM peptide, 10^-7 M PGF2α, porcine eyecup [1]: 76.2%
% Vasomotor Response (of maximum constriction), 100 µM peptide, 10^-7 M PGF2α, porcine eyecup [1]: 23.8%

Binder: [dI][dL]G[dH][dK][dD][dY][dK] [PCP-13.13]
% Inhibition of Maximal Response, 100 µM peptide, 10^-7 M PGF2α, porcine eyecup [1]: 63.1%
% Vasomotor Response (of maximum constriction), 100 µM peptide, 10^-7 M PGF2α, porcine eyecup [1]: 36.9%

Binder: [dI][dL]G[dF][dR][dD][dY][dK] [PCP-13.11]
% Inhibition of Maximal Response, 100 µM peptide, 10^-7 M PGF2α, porcine eyecup [1]: 87%
% Vasomotor Response (of maximum constriction), 100 µM peptide, 10^-7 M PGF2α, porcine eyecup [1]: 13%

Binder: ILGHRDYK [PCP-8]
% Inhibition of Maximal Response, 100 µM peptide, 10^-7 M PGF2α, porcine eyecup [1]: 50%
% Vasomotor Response (of maximum constriction), 100 µM peptide, 10^-7 M PGF2α, porcine eyecup [1]: 50%

Binder: WEDRFYLL [PCP-10]
% Inhibition of Maximal Response, 100 µM peptide, 10^-7 M PGF2α, porcine eyecup [1]: 80%
% Vasomotor Response (of maximum constriction), 100 µM peptide, 10^-7 M PGF2α, porcine eyecup [1]: 20%

B1: PCP-13.21 (peptide)
peptide: [dI][dL]G[dH][dR][dD][dY][dK]-NH2
modifications: N-terminus assumed
SMILES: CC[C@@H](C)[C@@H](N)C(=O)N[C@H](CC(C)C)C(=O)NCC(=O)N[C@H](Cc1c[nH]cn1)C(=O)N[C@H](CCCNC(=N)N)C(=O)N[C@H](CC(=O)O)C(=O)N[C@H](Cc1ccc(O)cc1)C(=O)N[C@H](CCCCN)C(N)=O
% Inhibition of Maximal Response, 100 µM peptide, 10^-7 M PGF2α, porcine eyecup [1]: 53.8%
% Vasomotor Response (of maximum constriction), 100 µM peptide, 10^-7 M PGF2α, porcine eyecup [1]: 46.2%

B2: PCP-13.20 (peptide)
peptide: [dI][dL]G[dH][dR][dD][dY]-NH2
modifications: N-terminus assumed
SMILES: CC[C@@H](C)[C@@H](N)C(=O)N[C@H](CC(C)C)C(=O)NCC(=O)N[C@H](Cc1c[nH]cn1)C(=O)N[C@H](CCCNC(=N)N)C(=O)N[C@H](CC(=O)O)C(=O)N[C@H](Cc1ccc(O)cc1)C(N)=O
% Inhibition of Maximal Response, 100 µM peptide, 10^-7 M PGF2α, porcine eyecup [1]: 50.4%
% Vasomotor Response (of maximum constriction), 100 µM peptide, 10^-7 M PGF2α, porcine eyecup [1]: 49.6%

Binder: [dI][dL]G[dW][dR][dD][dY][dK] [PCP-13.22]
% Inhibition of Maximal Response, 100 µM peptide, 10^-7 M PGF2α, porcine eyecup [1]: 83.4%
% Vasomotor Response (of maximum constriction), 100 µM peptide, 10^-7 M PGF2α, porcine eyecup [1]: 16.6%

The next lines start with the values.

% Inhibition of Maximal Response, 100 µM peptide, 10^-7 M PGF2α, porcine eyecup [1]: 64%
% Vasomotor Response (of maximum constriction), 100 µM peptide, 10^-7 M PGF2α, porcine eyecup [1]: 36%
Binder: [dY][dQ][dD][dR][dF][dY][dL][dL] [PCP-14]

IC50, U-II (1 µM) mediated contractility of retinal microvessels [2]: 0.115 µM
Binder: [dV][dI][dR][dA][dT][dR][dP][dA][dL] [SEQ ID NO:79]

% Inhibition of Maximal Response, 100 µM peptide, 10^-7 M PGF2α, porcine eyecup [1]: 88.1%
% Vasomotor Response (of maximum constriction), 100 µM peptide, 10^-7 M PGF2α, porcine eyecup [1]: 11.9%
Binder: [dS][dN][dV][dL][dC][dS][dI][dF] [PCP-15]

% Inhibition of Maximal Response, 100 µM peptide, 10^-7 M PGF2α, porcine eyecup [1]: 93.8%
% Vasomotor Response (of maximum constriction), 100 µM peptide, 10^-7 M PGF2α, porcine eyecup [1]: 6.2%
Binder: [dI][dL]G[dCha][dR][dD][dY][dK] [PCP-13.24]

IC50, C-PAF induced retinal vasomotor responses, porcine eyecup [3]: 0.134 µM
Binder: [dL][dV][dP][dV][dS]G[dK][dE][dY] [SEQ ID NO:85]
